Substitutions are numbered along the chain they refer to.
B1: unnamed (protein)
chain 1: QMQLVESGGGVVQPGRSLRLSCAASGFTFRTYGMHWVRQAPGKGLEWVAVIWYDGSNKHYADSVKGRFTITRDNSKNTLNLQMNSLRAEDTAVYYCARAPRYDERWEAFDVWGQGTMVTVSS
chain 2: SYVLTQPPSVSVAPGQTARITCGGNNLGSKSVHWYQQKPGQAPVLVVYDDSDRPSWIPERFSGSNSGNTATLTISRGEAGDEADYYCQVWDSSSDHVVFGGGTKLTVL
B2: unnamed (protein)
chain 1: B1 chain 1 with E104D, R105Y, W106Y, E107D
chain 2: B1 chain 2
B3: unnamed (protein)
chain 1: B1 chain 1 with E104Y, R105Y
chain 2: B1 chain 2
B4: unnamed (protein)
chain 1: B1 chain 1 with R105T
chain 2: B1 chain 2
B5: unnamed (protein)
chain 1: B1 chain 1 with R105Y
chain 2: B1 chain 2
B6: unnamed (protein)
chain 1: B1 chain 1 with D103Y, E104W, R105Y
chain 2: B1 chain 2
B7: unnamed (protein)
chain 1: B1 chain 1 with D103Y, R105Y, W106L
chain 2: B1 chain 2
B8: unnamed (protein)
chain 1: B1 chain 1 with E104W, R105T, W106Y
chain 2: B1 chain 2
B9: unnamed (protein)
chain 1: B1 chain 1 with R105E, W106Y
chain 2: B1 chain 2
B10: unnamed (protein)
chain 1: B1 chain 1 with D103Y, E104D, R105Y, W106Y
chain 2: B1 chain 2
B11: unnamed (protein)
chain 1: B1 chain 1 with D103Y, R105A, W106Y
chain 2: B1 chain 2
B12: unnamed (protein)
chain 1: B1 chain 1 with D103Y, E104D, R105Y, W106L
chain 2: B1 chain 2
B13: unnamed (protein)
chain 1: B1 chain 1 with D103Y, R105Y
chain 2: B1 chain 2
B14: unnamed (protein)
chain 1: B1 chain 1 with E104D, R105D
chain 2: B1 chain 2
B15: unnamed (protein)
chain 1: B1 chain 1 with E104Y, R105Y, W106Y
chain 2: B1 chain 2
B16: unnamed (protein)
chain 1: B1 chain 1 with A99S, E104W, R105Y, W106Y
chain 2: B1 chain 2
B17: unnamed (protein)
chain 1: B1 chain 1 with E104W, R105Y, W106V
chain 2: B1 chain 2
B18: unnamed (protein)
chain 1: B1 chain 1 with R105H, W106Y
chain 2: B1 chain 2
B19: unnamed (protein)
chain 1: B1 chain 1 with E104W, R105Y, W106Y
chain 2: B1 chain 2

molecular target: TSLP, Q969D9; experiment: Kd (SPR)

Row | Binder | Kd [nM]
1 | B1 | 494
2 | B2 | 163
3 | B3 | 175
4 | B4 | 141
5 | B5 | 84.9
6 | B6 | 23.6
7 | B7 | 31.9
8 | B8 | 128
9 | B9 | 78.9
10 | B10 | 33.2
11 | B11 | 31
12 | B12 | 22.6
13 | B13 | 29.2
14 | B14 | 82.7
15 | B15 | 138
16 | B16 | 122
17 | B17 | 54.2
18 | B18 | 168
19 | B19 | 48.2
